Values of other authors in PMC8874714.

Target: CYP102A1 (Priestia megaterium) (UniProt P14779)

Kd: 1.1 nM
Substance: CYP102A1 (from UniProt P14779)
